Assay [1] has as its target T1, EGFRvIII amino acid residues 15 to 37 with Asp23 to Ala mutation, yeast-displayed (human, not fully specified).
T1 construct: The entry already carries the mutation
T1 peptide: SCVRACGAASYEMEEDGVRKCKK
Briefly: flow cytometry on yeast displaying the Ala-mutated 15-37 fragment; normalized to Myc-tag; wild-type fragment = 100%. From the text: (§1) Assessment of the binding of anti-EGFRvIII monoclonal antibodies to the fusion proteins expressed on yeast cell surface was done by flow cytometry analysis. Yeast cells were labeled with both the anti-EGFRvIII monoclonal antibody and chicken anti-Myc antibody the latter being used to monitor the level of expression of the fusion protein. Following a wash step, binding of the primary antibodies is probed by a two-color indirect fluorescence labeling using a specific mouse and chicken secondary antibodies for each of the primary antibody respectively.
(§2) To further characterize mAb epitopes within the EGFRvIII 15-37 region, an alanine scan of this region was performed, and modified fragments were expressed at the surface of the yeast. […] The resulting DNAs were expressed at the surface of the yeast and each anti-EGFRvIII mAbs was tested on the corresponding yeast mutant strain by flow cytometry analysis. The original Ala19 and Ala22 were not mutated. Thus, this assay determined the contribution of each amino acid(s) in mAb binding in comparison to the original wild-type fragment (SEQ ID NO:5) which is attributed the value of 100%.

The target of assay [2] is T2, EGFRvIII amino acid residues 15 to 37 with Tyr25 to Ala mutation, yeast-displayed (human, not fully specified).
T2 construct: The entry already carries the mutation
T2 peptide: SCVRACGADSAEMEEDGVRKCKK
Briefly: flow cytometry on yeast displaying the mutated 15-37 fragment.
Description: as §1, §2

The target of assay [3] is T3, EGFRvIII amino acid residues 15 to 37 with Glu26 to Ala mutation, yeast-displayed (human, not fully specified).
T3 construct: The entry already carries the mutation
T3 peptide: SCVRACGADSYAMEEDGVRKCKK
Described as above.
Description: as §1, §2

Assay [4] deals with T2, EGFRvIII amino acid residues 15 to 37 …. Briefly: flow cytometry on yeast displaying the Ala-mutated 15-37 fragment; normalized to Myc-tag; wild-type fragment = 100%.
Description: as §1, §2
(Flow cytometry measures light scatter and fluorescence of single cells or particles in a stream.)

The target in assay [5] is T4, EGFRvIII amino acid residues 15 to 37 with Val17 to Ala mutation, yeast-displayed (human, not fully specified).
T4 construct: The entry already carries the mutation
T4 peptide: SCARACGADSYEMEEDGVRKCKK
Briefly: flow cytometry on yeast displaying the mutated 15-37 fragment.
Description: as §1, §2

The target of assay [6] is T1, EGFRvIII amino acid residues 15 to 37 …. The assay is described as above.
Description: as §1, §2

B1: F269-3D12 anti-EGFRvIII monoclonal antibody (antibody, V domains shown)
VH: EVQLQQSGPELVKPGSSVRISCKASGYTFTDYNMDWVKQSHGKSLEWIGTINPNNGGTSYNQKFKGKATLTVDKSSSTAYMELRSLTSEDSAVYYCARVRQLGLWFAYWGQGTLVTVSA
VL: EIVLTQSPALMAASPGEKVTITCSVSSSISSSNLHWYQQKSETSPKPWIYGTSNLASGVPVRFSGSGSGTSYSLTISSMEAEDAATYYCQQWSSYPLTFGSGTKLEIK
notes: Mouse hybridoma IgG, tested as supernatant or Protein G purified mAb; also called 3D12-2
In the case of B1, the “% of binding compared to the wild-type sequence” value in assay [1] worked out at 62.4%. Further, the binding result in assay [2] and in assay [3] was “no binding” in each case.

B2: F265-5B7 anti-EGFRvIII monoclonal antibody (antibody, V domains shown)
VH: QIQLVQSGPELKKPGETVMISCKASGYSFTNYGMNWVKQAPEKDLKWMGWINTYTGESRYVDEFKGRFAFSLETSVSIVYLKINNLKNEDMATYFCARGPNFDVWGTGTTVTVSS
VL: not shown
notes: Mouse hybridoma IgG, tested as supernatant or Protein G purified mAb; also called 5B7-2
Consider B2, for which the “% of binding compared to the wild-type sequence” value in assay [4] was determined as 192%. For the same molecule, the binding result in assay [5] and in assay [6] was “no binding” each time.

These data come from patent US20220323495A1 (NATIONAL RESEARCH COUNCIL OF CANADA, published 2022).
